# Target: the molecule itself
# Assay: crystal structure
protein,measurement,value
"Atg11 residues 699-800 (Atg11_(699-800)) (domain or fragment, S. cerevisiae, UniProt Q12527 699-800, looked up) NNHQIQELESNVDDLLHQLQLLKEENNRKSMQISEMGKKISDLEVEKTAYRETLTNLNQELARLTNEEQSHRTEIFTLNASFKKQLNDIISQDNEKIEKLTG",stoichiometry N,2

# From paper PMC7603899 (Journal of molecular biology, 2020)
